Numbering of substitutions follows the chain as printed. In names and notes the source's numbering stands.
Legend:
[1] = system: TNAP knock-out mice; conditions: TNAP knock-out mice of Waymire et al.; cited from earlier work
[2] = system: wild-type osteoblastic cells; test: Predicted effect of factors expressed or delivered on PPi and mRNA expression; assay type: cell-based, mouse
Excerpt: In order to test the hypothesis that PPi itself represents the signaling molecule that influences the transcription of the TNAP, PC-1 and ANK genes, we examine the levels of TNAP, PC-1 and ANK in calvarial tissue and osteoblasts from the mutant mouse lines and in the rescued mouse strains and by measure mRNA for TNAP, PC-1 and ANK by Northern blot analysis. Subsequently, cells from the different mutant strains and rescued mice are exposed to medium with different concentrations of PPi, or non-hydrolyzable analogues (phosphocitrate and the biphosphonate etidronate), for various time points and tested for changes in mRNA levels of the three genes. In addition, in vitro cytoplasmic and nuclear microinjection of PPi and analogues into osteoblastic cells are performed to examine the effect of intracellular PPi on these same genes. Measurements of mRNA changes are monitored by real-time RT-PCR using an ABI 7700 Sequence Detection system to facilitate these measurements.
These evaluations are done on osteoblastic cells from the different mutant mice and cross-bred strains with or without rescue of the deficient molecule after specifically transfecting the respective cDNAs back into the deficient cells. As a control for the transfections, we employ mutant enzyme-deficient PC-1 (Johnson et al., J. Bone Miner. Res. 14:883-892, 1999; Johnson et al., Arthritis Rheum. 42:1986-1997, 1999), mutant ANK (Ho et al., Science 289:265-270, 2000), and mutant enzyme-deficient TNAP (Wennberg et al., J. Bone Mineral Res., 2000). The table summarizes the experiments to be performed and the results that are expected.

[3] = system: TNAP-/- mice; test: Administration of exogenous pyridoxal HCl to TNAP-/- mice; assay type: in vivo, mouse
Excerpt: At the time that we were developing the TNAP knock-out mice, Waymire et al. (Nature Genet. 11:45-51, 1995) independently reported the production of TNAP knock-out mice. […] These studies provided support to the hypothesis, set forth by Michael P. Whyte in his studies of human hypophosphatasia, that pyridoxal-5′-phosphate (vitamin B6) might be a natural substrate of TNAP. The rationale for this hypothesis is that pyridoxal-5′-phosphate cannot easily traverse biological membranes but that the related, more hydrophobic derivatives, pyridoxal and pyridoxamine can do so with much better kinetics. Thus, the presumption is that the cells that are deficient in TNAP cannot dephosphorylate pyridoxal-5′-phosphate on the outside of the cells leading to an intracellular deficiency of Vitamin B6 (Whyte, Endocrine Rev. 15:439-461, 1994). […] Control mice fed a vitamin B6-depleted diet developed epileptic seizures indistinguishable from those observed in TNAP−/− mice, abnormal apoptosis in the thymus and thinning of the nerve roots.

[4] = system: TNAP ko osteoblasts; test: Mineralization of bone nodules in primary TNAP ko osteoblast cultures (von Kossa); assay type: cell-based, mouse; conditions: added to the ko osteoblast culture medium
Procedure: Primary cultures of osteoblasts were isolated from calvariae of 1-4 day old pups that were hybrids of C57Bl/6×129/J mouse strains with wild-type, heterozygote and homozygote TNAP null genotypes. Isolation was performed by a slightly modified version of the time sequential collagenase technique described by Boonekamp et al. (Proc. Kon. Ned. Akad. Wet. B87:371-382, 1984). In brief, calvariae of the same genotype were pooled and three 10 minute incubations in 4 mM EDTA, 137 mM NaCl, 2.7 mM KCl, 3 mM NaH2PO4, pH 7.2, were performed, followed by seven 10 minute digestions in EDTA-free buffer, containing 180 units/ml collagenase type II (Worthington Biochemical Corporation, Lakewood, N.J.). All isolations were performed at 37° C. in a shaking water bath. The last five collagenase digestions, containing an enriched cell population of osteoblastic phenotype, were pooled and seeded at 4×10^4 cells/cm^2 in αMEM (Gibco BRL, Grand Island, N.Y.), containing 10% heat-inactivated FCS, penicillin (50 U/ml) and streptomycin ([…]).
To study mineralization, we used conditions under which we observed that osteoblasts normally formed von Kossa stain positive and alizarin red positive nodules at 7-10 days in culture. In brief, primary calvarial osteoblasts were cultured in complete αMEM media as described above, supplemented with β-glycerophosphate (10 mM) every third day and L-ascorbic acid (50 μg/ml) daily. MC3T3-E1 cells (Johnson et al., J. Bone Min. Res. 14:883-892, 1999) were maintained in the same medium, and for each experiment were plated at 80% confluence (1×10^6 cells in a 10 cm tissue-culture plastic dish in 5 ml) and received β-glycerophosphate and L-ascorbic acid as for primary osteoblasts above.
To evaluate the ability of primary osteoblasts to form and mineralize bone nodules in vitro, wild-type (wt), heterozygous and knock-out (ko) osteoblasts were cultured in media supplemented with ascorbic acid, using β-glycerophosphate as phosphate source. […] The extent of bone mineral deposition in these cultures was confirmed by quantifications of deposited calcium. […]

## Cc1ncc(CO)c(CO)c1O.Cl [vitamin B6]
[1]
  epileptic seizures: partially rescue the epileptic seizures
  life span: prolonging their life

## ANK: factor expressed in wild-type osteoblastic cells by transfecting the cDNA (Table 1)
[2]
  Predicted effect on PPi, Extracellular: ⇑
  Predicted effect on PPi, Intracellular: ↓
  Predicted effect on mRNA expression, ANK: ↓
  Predicted effect on mRNA expression, TNAP: ⇑

## Cc1ncc(CO)c(C=O)c1O.Cl [pyridoxal HCl]
[3]
  episodes of apnea: episodes of apnea ceased
  hypomineralization and accumulation of osteoid: continued to worsen with age
  life span: increased the life span
  myelinization of lumbar nerve roots: improved
  onset of epileptic attacks: delayed the onset of epileptic attacks

B1: heat-inactivated recombinant TNAP: heat-inactivated recombinant TNAP (protein, UniProt P05186 18-501, looked up)
Alkaline phosphatase, …: LVPEKEKDPKYWRDQAQETLKYALELQKLNTNVAKNVIMFLGDGMGVSTVTAARILKGQLHHNPGEETRLEMDKFPFVALSKTYNTNAQVPDSAGTATAYLCGVKANEGTVGVSAATERSRCNTTQGNEVTSILRWAKDAGKSVGIVTTTRVNHATPSAAYAHSADRDWYSDNEMPPEALSQGCKDIAYQLMHNIRDIDVIMGGGRKYMYPKNKTDVEYESDEKARGTRLDGLDLVDTWKSFKPRYKHSHFIWNRTELLTLDPHNVDYLLGLFEPGDMQYELNRNNVTDPSLSEMVVVAIQILRKNPKGFFLLVEGGRIDHGHHEGKAKQALHEAVEMDRAIGQAGSLTSSEDTLTVVTADHSHVFTFGGYTPRGNSIFGLAPMLSDTDKKPFTAILYGNGPGYKVVGGERENVSMVDYAHNNYQAQSAVPLRHETHGGEDVAVFSKGPMAHLLHGVHEQNYVPHVMAYAACIGANLGHCAPAS
modifications: heat-inactivated
[4]
  induction of mineralization: neither heat-inactivated recombinant TNAP, nor enzymatically inactive mutants of TNAP, such as [R54C]TNAP or [V365I]TNAP, were able to induce mineralization

B2: [R54C]TNAP: enzymatically inactive mutant of TNAP (protein, UniProt P05186 18-501, looked up, variant R54C)
Alkaline phosphatase, …: B1 Alkaline phosphatase, … with R54C
[4]
  induction of mineralization: nor enzymatically inactive mutants of TNAP, such as [R54C]TNAP or [V365I]TNAP, were able to induce mineralization

B3: [V365I]TNAP: enzymatically inactive mutant of TNAP (protein, UniProt P05186 18-501, looked up, variant V365I)
Alkaline phosphatase, …: B1 Alkaline phosphatase, … with V365I
[4]
  induction of mineralization: nor enzymatically inactive mutants of TNAP, such as [R54C]TNAP or [V365I]TNAP, were able to induce mineralization

B4: TNAP: factor expressed in wild-type osteoblastic cells by transfecting the cDNA (Table 1) (protein)
chain: FVPEKERDPSYWRQQAQETLKNALKLQKLNTNVAKNVIMFLGDGMGVSTVTAARILKGQLHHNTGEETRLEMDKFPFVALSKTYNTNAQVPDSAGTATAYLCGVKANEGTVGVSAATERTRCNTTQGNEVTSILRWAKDAGKSVGIVTTTRVNHATPSAAYAHSADRDWYSDNEMPPEALSQGCKDIAYQLMHNIKDIDVIMGGGRKYMYPKNRTDVEYELDEKARGTRLDGLDLISIWKSFKPRHKHSHYVWNRTELLALDPSRVDYLLGLFEPGDMQYELNRNNLTDPSLSEMVEVALRILTKNLKGFFLLVEGGRIDHGHHEGKAKQALHEAVEMDQAIGKAGAMTSQKDTLTVVTADHSHVFTFGGYTPRGNSIFGLAPMVSDTDKKPFTAILYGNGPGYKVVDGERENVSMVDYAHNNYQAQSAVPLRHETHGGEDVAVFAKGPMAHLLHGVHEQNYIPHVMAYASCIGANLDHCAWAG
[2]
  Predicted effect on PPi, Extracellular: ↓
  Predicted effect on PPi, Intracellular: ↓
  Predicted effect on mRNA expression, ANK: ⇑
  Predicted effect on mRNA expression, PC-1: ⇑

B5: PC-1: factor expressed in wild-type osteoblastic cells by transfecting the cDNA (Table 1) (protein)
chain: MERDGDQAGHGPRHGSAGNGRELESPAAASLLAPMDLGEEPLEKAERARPAKDPNTYKVLSLVLSVCVLTTILGCIFGLKPSCAKEVKSCKGRCFERTFSNCRCDAACVSLGNCCLDFQETCVEPTHIWTCNKFRCGEKRLSRFVCSCADDCKTHNDCCINYSSVCQDKKSWVEETCESIDTPECPAEFESPPTLLFSLDGFRAEYLHTWGGLLPVISKLKNCGTYTKNMRPMYPTKTFPNHYSIVTGLYPESHGIIDNKMYDPKMNASFSLKSKEKFNPLWYKGQPIWVTANHQEVKSGTYFWPGSDVEIDGILPDIYKVYNGSVPFEERILAVLEWLQLPSHERPHFYTLYLEEPDSSGHSHGPVSSEVIKALQKVDRLVGMLMDGLKDLGLDKCLNLILISDHGMEQGSCKKYVYLNKYLGDVNNVKVVYGPAARLRPTDVPETYYSFNYEALAKNLSCREPNQHFRPYLKPFLPKRLHFAKSDRIEPLTFYLDPQWQLALNPSERKYCGSGFHGSDNLFSNMQALFIGYGPAFKHGAEVDSFENIEVYNLMCDLLGLIPAPNNGSHGSLNHLLKKPIYNPSHPKEEGFLSQCPIKSTSNDLGCTCDPWIVPIKDFEKQLNLTTEDVDDIYHMTVPYGRPRILLKQHHVCLLQQQQFLTGYSLDLLMPLWASYTFLRNDQFSRDDFSNCLYQDLRIPLSPVHKCSYYKSNSKLSYGFLTPPRLNRVSNHIYSEALLTSNIVPMYQSFQVIWHYLHDTLLQRYAHERNGINVVSGPVFDFDYDGRYDSLEILKQNSRVIRSQEILIPTHFFIVLTSCKQLSETPLECSALESSAYILPHRPDNIESCTHGKRESSWVEELLTLHRARVTDVELITGLSFYQDRQESVSELLRLKTHLPIFSQED
[2]
  Predicted effect on PPi, Extracellular: ⇑
  Predicted effect on PPi, Intracellular: ⇑
  Predicted effect on mRNA expression, PC-1: ↓
  Predicted effect on mRNA expression, TNAP: ⇑

B6: iPPiase: inorganic pyrophosphatase, factor expressed in wild-type osteoblastic cells (Table 1) (protein, UniProt Q15181 2-289, looked up)
Inorganic pyrophosphatase: SGFSTEERAAPFSLEYRVFLKNEKGQYISPFHDIPIYADKDVFHMVVEVPRWSNAKMEIATKDPLNPIKQDVKKGKLRYVANLFPYKGYIWNYGAIPQTWEDPGHNDKHTGCCGDNDPIDVCEIGSKVCARGEIIGVKVLGILAMIDEGETDWKVIAINVDDPDAANYNDINDVKRLKPGYLEATVDWFRRYKVPDGKPENEFAFNAEFKDKDFAIDIIKSTHDHWKALVTKKTNGKGISCMNTTLSESPFKCDPDAARAIVDALPPPCESACTVPTDVDKWFHHQKN
[2]
  Predicted effect on PPi, Extracellular: =
  Predicted effect on PPi, Intracellular: ↓
  Predicted effect on mRNA expression, ANK: ⇑
  Predicted effect on mRNA expression, PC-1: ⇑
  Predicted effect on mRNA expression, TNAP: ↓
